# Where no end group is shown, it is not given here. [ ]: non-standard residue; d: D form. Ahx = NCCCCCC(=O)O
# Biological target: T1, Soluble PDGF receptor, recombinant chimera of human PDGF-R-alpha (R&D Systems) (human, UniProt P16234 24-524)
# T1 construct: Bought from R&D Systems; immobilized on a CM5 chip by EDC/NHS; not shown: called a recombinant chimera
# Experiment: SPR, BIAcore 2000, receptor immobilized on CM5 chip, peptide as analyte, 1:1 global fit
# Experimental: Surface Plasmon Resonance (SPR) Analysis. Real-time biomolecular interactions were analyzed with a BIAcore 2000 system (Biacore Inc., Piscataway, N.J.). Soluble PDGF receptor, recombinant chimera of human PDGF-R-alpha and PSGF-R-beta (R &D Systems, Minneapolis, Minn.), was immobilized on research grade CM5 chips (Biacore Inc., Piscataway, N.J.). Following activation with EDC/NHS, the receptors were immobilized on activated CM5 chips. To obtain kinetic data, different concentrations of analytes in HBS-EP buffer were injected over the sensor chip at a flow rate of 50 μl/min. Peptide binding was measured in resonance units (RU). At the end of each sample injection (120 s) buffer was passed over the sensor surface to monitor the dissociation phase. Reference responses from blank flow cells were subtracted from receptor-containing flow cells for each analyte injection and the kinetic parameters for each interaction were determined by globally fitting the experimental data to a 1:1 interaction with BIAEVALUATION software (Biacore Inc., Piscataway, N.J.). The association rate constant and the dissociation rate constant (kₐ and kd, respectively), and the equilibrium dissociation constant (KD) are presented in the Table 4 for the receptors and PBA2-1.
# T1 sequence (P16234 24-524, change not shown): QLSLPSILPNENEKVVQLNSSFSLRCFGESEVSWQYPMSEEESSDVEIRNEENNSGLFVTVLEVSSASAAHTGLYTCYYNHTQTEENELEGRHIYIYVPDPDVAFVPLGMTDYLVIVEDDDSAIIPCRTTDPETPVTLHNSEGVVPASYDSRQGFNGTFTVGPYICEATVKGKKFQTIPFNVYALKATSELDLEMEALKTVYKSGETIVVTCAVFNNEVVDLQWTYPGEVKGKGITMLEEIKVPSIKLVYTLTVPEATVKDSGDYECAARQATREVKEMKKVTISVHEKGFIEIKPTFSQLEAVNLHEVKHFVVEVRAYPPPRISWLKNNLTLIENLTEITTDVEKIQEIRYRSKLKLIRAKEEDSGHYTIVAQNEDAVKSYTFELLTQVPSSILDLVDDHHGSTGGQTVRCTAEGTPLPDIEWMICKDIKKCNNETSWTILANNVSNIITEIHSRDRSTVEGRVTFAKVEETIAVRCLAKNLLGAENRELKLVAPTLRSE
binder,measurement,value
"PBA2-1 (also: chain 2 bound through its C-terminus to the side chain of Lys11 of chain 1 (branched homodimer), bond at chain A 11 to a chain's C-terminus, also called mimetic of PDGF; PDGF analog PBA2-1) chain 1: VRKIEIVRKKK[Ahx][Ahx][Ahx]RKRKLERIAR-NH2 chain 2: VRKIEIVRKK",Kd,23.3 nM
